Assay results published in patent US20240010747A1, “ANTI-MRP4 (ENCODED BY ABCC4 GENE) ANTIBODIES AND USES THEREOF” (Kenjockety Biotechnology, Inc., priority 2020, published 2024).

T1: cynomolgus ABCC4 (cynomolgus, UniProt A0A2K5W0Z4 1-1325)
T1 construct: whole, on cells; Expressed on murine C6 cells stably transfected with cynomolgus ABCC4 cDNA with C-terminal FLAG tag; not shown: C-terminal fused FLAG tag
T1 sequence: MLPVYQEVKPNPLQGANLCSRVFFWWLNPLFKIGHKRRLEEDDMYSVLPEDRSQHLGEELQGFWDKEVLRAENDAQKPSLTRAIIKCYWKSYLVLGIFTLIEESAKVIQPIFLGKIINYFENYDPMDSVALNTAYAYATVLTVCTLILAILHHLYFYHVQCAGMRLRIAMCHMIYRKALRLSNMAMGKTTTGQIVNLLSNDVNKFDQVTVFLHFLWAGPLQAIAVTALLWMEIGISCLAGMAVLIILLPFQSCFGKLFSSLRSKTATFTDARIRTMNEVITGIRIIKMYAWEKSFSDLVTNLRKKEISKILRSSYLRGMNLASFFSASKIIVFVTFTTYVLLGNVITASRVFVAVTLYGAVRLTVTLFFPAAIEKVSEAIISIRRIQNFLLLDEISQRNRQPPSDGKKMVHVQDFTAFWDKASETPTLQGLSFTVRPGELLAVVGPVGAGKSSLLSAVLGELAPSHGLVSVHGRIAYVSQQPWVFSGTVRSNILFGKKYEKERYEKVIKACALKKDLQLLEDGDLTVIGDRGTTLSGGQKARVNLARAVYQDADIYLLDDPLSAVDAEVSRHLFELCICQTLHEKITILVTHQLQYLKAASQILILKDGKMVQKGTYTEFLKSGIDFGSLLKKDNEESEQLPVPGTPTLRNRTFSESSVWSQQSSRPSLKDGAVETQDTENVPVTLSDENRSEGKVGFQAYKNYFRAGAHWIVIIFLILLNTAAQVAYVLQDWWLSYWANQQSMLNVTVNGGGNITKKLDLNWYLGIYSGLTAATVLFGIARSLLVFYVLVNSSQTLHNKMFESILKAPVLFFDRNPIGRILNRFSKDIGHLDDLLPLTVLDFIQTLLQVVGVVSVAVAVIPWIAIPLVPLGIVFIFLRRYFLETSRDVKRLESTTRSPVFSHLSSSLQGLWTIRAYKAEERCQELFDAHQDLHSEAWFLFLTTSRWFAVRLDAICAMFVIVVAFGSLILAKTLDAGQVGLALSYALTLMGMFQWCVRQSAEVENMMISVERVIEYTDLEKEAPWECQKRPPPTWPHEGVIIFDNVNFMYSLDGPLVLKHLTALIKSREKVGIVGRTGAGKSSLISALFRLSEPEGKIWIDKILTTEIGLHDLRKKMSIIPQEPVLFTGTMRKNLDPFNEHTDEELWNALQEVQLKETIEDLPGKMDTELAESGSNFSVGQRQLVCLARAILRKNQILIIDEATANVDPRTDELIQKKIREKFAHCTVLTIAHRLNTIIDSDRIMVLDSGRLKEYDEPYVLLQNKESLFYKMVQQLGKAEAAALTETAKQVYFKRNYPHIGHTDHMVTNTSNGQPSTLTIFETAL

B1: C4.1059 (antibody, V domains shown)
VH: QVQLLQSGAALVKPGASVKMSCKPSGYTFTDYWVSWVKQSHGKSLEWIGEIYPNNGATNFNEKFKGKATLTVDKSTSTAYMELSRLTSEDSAIYYCPSRKYGYNWNFDYWGQGTMVTVSS
VL: DIVLTQSPALAVSLGQRATISCWASQSVSISRYNLMHWYQQKPGQQPKLLIYRASNLASGIPARFSGSGSGTDFTLTINPVQADDIATYYCQQSGESPWTFGGGTKLELK
B2: C4.1139 (antibody, V domains shown)
VH: EVQLVESDGGLVQPGRSLKLSCAASGFTFSDYYMAWVRQAPTKGLYWVASISYDGSTTYYRDSVKGRFTISRDNAKSTLYLQMGSLRSEDTATYYCARLSIRYKGVMDAWGRGASVTVSS
VL: DVVMTQSPSNLAASPGESVSINCKASKSIGKFLAWYQQKPGRPNKLLIYSGSTLQSGTPSRFSGSGSGTDFTLTIRNLEPGDFGLYYCQHHIEYPPTFGPGTKLELK
B3: C4.1148 (antibody, V domains shown)
VH: EVQLVESDGGLVQPGRSLKLSCAASGFTFSDYYMAWVRQAPPKGLEWVATISYDAFTTYYRDSVKGRFTISRDNAKTILFLQMDSLRSEDTATYYCIRLSTRYKGVMDAWGHGASVTVSS
VL: DIQMTQSPSNLAASPGESVSINCKASETIYKYLAWYQQKPGRTNKLLIYSGSTLQSGTPSRFSGSGSGTDFTLTIRNLEPEDFGRYYCQHHVEYPPTFGAGTKLELK

The binders below were run against T1, cynomolgus ABCC4 (assay: FACS, different C6.cC4 cell line stably expressing cynomolgus ABCC4).
Protocol: Antibody binding to cells was evaluated by flow cytometry. Murine C6 cells stably transfected to express human or cynomolgus ABCC4 were washed once in flow cytometry buffer (PBS+2% FBS+0.02% sodium azide), resuspended at 2×10\hat{ }6 cells/mL in flow cytometry buffer, and dispensed into 96-well microtiter plates at 0.1 mL/well. Recombinant antibodies were added to cells at 5 ug/mL for initial binding confirmation, or serially diluted from 100 ug/mL in flow cytometry buffer. After incubating cells on ice for 30 min, cells were washed twice with flow cytometry buffer. Bound antibody was detected with PE-labeled F(ab′)₂ fragment goat anti-human IgG (Jackson ImmunoResearch) and evaluated on an Attune N×T flow cytometer. EC50 is calculated to be the concentration of antibody that gives half maximal response.
B1: no binding (tested: Rmax (MFI) below background level).
B2: no binding (tested: Rmax (MFI) below background level).
B3: no binding (tested: Rmax (MFI) below background level).
